± gives the standard deviation of the averaged measurements.
B1: library; a variant is named by its letters at N, in order (parent)
chain: GCUGUCACCGGUGCUUGGUACGUUAUAUUCAGCCGGUCUGAUGAGUCUNNNNNNAGACGAAACAGC

How the values were obtained:
(6R,S)-folinic acid [1] = variants of: B1; experiment: FACS-Seq fitted mean relative fluorescence mCherry/BFP without ligand (log10 relative fluorescence); HEK293T overexpressing SLC46A1; higher = higher reporter protein expression; details: without (6R,S)-folinic acid; ligand present: no
In short: (§1)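 HEK293T libraries were made by lentiviral transduction with a ribozyme-switch mCherry reporter and an EF1α-BFP marker, enriched, and incubated with or without ligand for 48 h. Cells were sorted into 6 mCherry/BFP bins, and each bin's genomic DNA was PCR-amplified, barcoded and run on MiSeq. Fluorescence was derived by normal fitting of the bin counts. The fitted log10(mCherry/BFP) mean was scaled to five spiked-in control ribozymes.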

(6R,S)-folinic acid [2] = variants of: B1; experiment: normalized RNA/DNA level without ligand (relative to sTRSVctl = 100) (log10 (% of sTRSVctl)); HEK293T overexpressing SLC46A1; higher = less ribozyme self-cleavage, higher mRNA level; details: without (6R,S)-folinic acid; ligand present: no
In short: (§2)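 Library plasmids carrying ribozyme switches linked to mCherry, or to eGFP in some ligand experiments, were transfected into HEK293T at 4 µg per 6-well well, with any ligand added 1 h earlier. Seventy-two hours on, total RNA was extracted with EDTA and reverse-transcribed, amplified, barcoded and sequenced. RNA level was RNA over DNA reads normalized to a spiked-in non-cleaving sequence or to the top sequences, then scaled and log-transformed. The top set was 25 sequences, the transform was ×100 and log10, and sequences needed ≥100 DNA reads.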

(6R,S)-folinic acid [3] = variants of: B1; experiment: FACS-Seq fitted mean relative fluorescence mCherry/BFP with ligand (log10 relative fluorescence); HEK293T overexpressing SLC46A1; ligand concentration (+) FACS-Seq: 6 mM; higher = higher reporter protein expression; details: with (6R,S)-folinic acid; ligand present: yes
In short: as §1

(6R,S)-folinic acid [4] = variants of: B1; experiment: normalized RNA/DNA level with ligand (relative to sTRSVctl = 100) (log10 (% of sTRSVctl)); HEK293T overexpressing SLC46A1; ligand concentration (+) RNA-Seq: 6 mM; higher = less ribozyme self-cleavage, higher mRNA level; details: with (6R,S)-folinic acid; ligand present: yes
In short: as §2

Row | Variant | FACS-Seq fitted mean (log10) ((6R,S)-folinic acid [1]) | normalized RNA/DNA level without ligand (log10) ((6R,S)-folinic acid [2]) | FACS-Seq fitted mean (log10) ((6R,S)-folinic acid [3]) | normalized RNA/DNA level with ligand (log10) ((6R,S)-folinic acid [4])
1 | UUCAGG | 0.449 ± 0.081 | 1.894 ± 0.0032 | 0.666 ± 0.2 | 1.98 ± 0.057
2 | UUCCAA | 0.112 ± 0.15 | 1.992 ± 0.0026 | 0.213 ± 0.13 | 2 ± 0.028
3 | AUUAAA | 0.22 ± 0.063 | 1.974 ± 0.0062 | 0.296 ± 0.21 | 1.992 ± 0.0089
4 | GUCCGG | -0.054 ± 0.18 | 2.042 ± 0.011 | -0.0351 ± 0.41 | 2.05 ± 0.063
5 | GUCCGA | 0.497 ± 0.025 | 2.017 ± 0.0041 | 0.383 ± 0.061 | 2.007 ± 0.0092
6 | GUCGUA | 0.666 ± 0.21 | 2.0187 ± 0.00087 | 0.497 ± 0.34 | 2.01 ± 0.025
7 | UUCUAG | 0.502 ± 0.03 | 1.879 ± 0.0029 | 0.872 ± 0.074 | 1.99 ± 0.044
8 | UUCUAA | 0.64 ± 0.015 | 2.014 ± 0.011 | 0.66 ± 0.067 | 2.01 ± 0.026
9 | AUUAGG | 0.125 ± 0.18 | 1.9 ± 0.023 | 0.123 ± 0.074 | 2.01 ± 0.028
10 | AUUAGA | 0.0629 ± 0.005 | 1.965 ± 0.004 | -0.224 ± 0.063 | 2.01 ± 0.033
11 | GUGAAG | 0.207 ± 0.012 | 1.9352 ± 0.0013 | 0.436 ± 0.27 | 2.02 ± 0.043
12 | GUGAAA | -0.0108 ± 0.075 | 1.956 ± 0.0062 | 0.313 ± 0.017 | 1.981 ± 0.016
13 | GUGAAU | 0.0592 ± 0.055 | 1.944 ± 0.0083 | 0.217 ± 0.099 | 2 ± 0.043
14 | UUUACC | 0.636 ± 0.0052 | 1.996 ± 0.018 | 0.724 ± 0.077 | 1.97 ± 0.036
15 | UUUACU | 0.0671 ± 0.017 | 2.032 ± 0.0085 | -0.0776 ± 0.03 | 2.033 ± 0.013
16 | UUGCAG | 0.439 ± 0.019 | 1.886 ± 0.0031 | 0.636 ± 0.033 | 2 ± 0.042
17 | CUGGAA | 0.184 ± 0.035 | 1.9175 ± 0.00021 | 0.243 ± 0.021 | 1.97 ± 0.028
18 | CUGGAU | 0.302 ± 0.025 | 1.966 ± 0.018 | 0.179 ± 0.028 | 2.02 ± 0.022
19 | UUCACU | -0.112 ± 0.034 | 2.059 ± 0.0067 | -0.112 ± 0.28 | 2.041 ± 0.02
20 | GUCAGG | 0.338 ± 0.065 | 1.938 ± 0.015 | 0.29 ± 0.076 | 1.974 ± 0.018
21 | AUGCAC | 0.724 ± 0.038 | 2.001 ± 0.0052 | 0.703 ± 0.1 | 2.014 ± 0.01
22 | AUGCAA | 0.349 ± 0.0069 | 1.9632 ± 0.00072 | 0.36 ± 0.083 | 1.976 ± 0.011
23 | AUGAGA | 0.466 ± 0.025 | 1.944 ± 0.014 | 0.537 ± 0.077 | 2.014 ± 0.016
24 | AUGAGU | 0.287 ± 0.0094 | 1.788 ± 0.017 | 0.639 ± 0.18 | 1.97 ± 0.04

Row | Variant | FACS-Seq fitted mean (log10) ((6R,S)-folinic acid [1]) | normalized RNA/DNA level without ligand (log10) ((6R,S)-folinic acid [2]) | FACS-Seq fitted mean (log10) ((6R,S)-folinic acid [3]) | normalized RNA/DNA level with ligand (log10) ((6R,S)-folinic acid [4])
25 | AUGAGC | -0.023 ± 0.066 | 1.998 ± 0.0094 | 0.192 ± 0.3 | 2.03 ± 0.028
26 | UUCGGC | 0.0747 ± 0.019 | 2.043 ± 0.013 | -0.314 ± 0.0053 | 2.04 ± 0.054
27 | AUGAAA | 0.535 ± 0.016 | 1.944 ± 0.0099 | 0.656 ± 0.15 | 1.98 ± 0.033
28 | AUGAAU | 0.232 ± 0.017 | 1.929 ± 0.013 | 0.0739 ± 0.05 | 2 ± 0.022
29 | AUGAAG | 0.432 ± 0.049 | 1.836 ± 0.0092 | 0.578 ± 0.14 | 1.99 ± 0.048
30 | UUCCUG | 0.284 ± 0.092 | 1.96 ± 0.027 | 0.493 ± 0.079 | 2.03 ± 0.024
31 | GUGUAC | -0.753 ± 0.24 | 1.942 ± 0.0035 | -0.684 ± 0.34 | 2.005 ± 0.0037
32 | GUGUAG | 0.435 ± 0.018 | 1.899 ± 0.0022 | 0.514 ± 0.18 | 1.998 ± 0.016
33 | GUGUAA | 0.21 ± 0.21 | 1.957 ± 0.0042 | 0.383 ± 0.18 | 2 ± 0.041
34 | GUGGUU | 0.311 ± 0.089 | 2.014 ± 0.0041 | 0.443 ± 0.013 | 2.02 ± 0.037
35 | GUGGUG | 0.383 ± 0.21 | 1.92 ± 0.024 | 0.306 ± 0.32 | 2 ± 0.043
36 | UUCCGA | -0.0446 ± 0.086 | 1.997 ± 0.002 | -0.101 ± 0.13 | 1.999 ± 0.018
37 | CUCGCU | 0.424 ± 0.087 | 2.06 ± 0.044 | 0.349 ± 0.091 | 2.02 ± 0.038
38 | CUCGCA | 0.235 ± 0.086 | 2.06 ± 0.013 | 0.416 ± 0.3 | 2.062 ± 0.011
39 | GUGCUG | -0.457 ± 0.06 | 2.077 ± 0.012 | -0.879 ± 0.14 | 2.05 ± 0.065
40 | AUGGCG | 0.284 ± 0.024 | 1.91 ± 0.022 | 0.359 ± 0.058 | 2.04 ± 0.031
41 | AUGGGA | 0.263 ± 0.012 | 1.925 ± 0.015 | 0.269 ± 0.049 | 2.01 ± 0.03
42 | AUGGGG | 0.139 ± 0.026 | 1.841 ± 0.0025 | 0.258 ± 0.36 | 2.03 ± 0.062
43 | GUGUCA | 0.425 ± 0.12 | 2.008 ± 0.0044 | 0.477 ± 0.009 | 2.03 ± 0.033
44 | AUGGUG | 0.433 ± 0.026 | 1.786 ± 0.011 | 0.485 ± 0.12 | 2.01 ± 0.024
45 | AUGGUA | 0.132 ± 0.069 | 1.91 ± 0.0083 | 0.165 ± 0.17 | 1.98 ± 0.038
46 | AUGGUU | 0.245 ± 0.097 | 1.98 ± 0.026 | 0.136 ± 0.14 | 2.01 ± 0.027
47 | GUGCCG | 0.617 ± 0.24 | 2.0438 ± 0.0018 | 0.702 ± 0.27 | 2.04 ± 0.052
48 | CUCUUA | 0.211 ± 0.012 | 2.0064 ± 0.0006 | 0.143 ± 0.3 | 2 ± 0.03

Row | Variant | FACS-Seq fitted mean (log10) ((6R,S)-folinic acid [1]) | normalized RNA/DNA level without ligand (log10) ((6R,S)-folinic acid [2]) | FACS-Seq fitted mean (log10) ((6R,S)-folinic acid [3]) | normalized RNA/DNA level with ligand (log10) ((6R,S)-folinic acid [4])
49 | UUCUGG | 0.429 ± 0.029 | 1.887 ± 0.0036 | 0.696 ± 0.12 | 2.03 ± 0.037
50 | UUCUGC | 0.411 ± 0.14 | 2.049 ± 0.02 | 0.336 ± 0.038 | 2.04 ± 0.052
51 | GUUACC | 0.497 ± 0.022 | 2.047 ± 0.013 | 0.281 ± 0.23 | 2.03 ± 0.026
52 | GUGCGA | 0.238 ± 0.11 | 1.999 ± 0.014 | 0.278 ± 0.38 | 2.02 ± 0.044
53 | GUGCGU | 0.436 ± 0.15 | 1.9915 ± 0.0017 | 0.582 ± 0.16 | 2.008 ± 0.017
54 | UUGUUA | 0.514 ± 0.052 | 2.03 ± 0.014 | 0.793 ± 0.16 | 2.07 ± 0.031
55 | UUGGUG | 0.364 ± 0.16 | 1.75 ± 0.031 | 0.52 ± 0.26 | 2.01 ± 0.053
56 | UUUAUG | 0.307 ± 0.0054 | 1.79 ± 0.024 | 0.315 ± 0.17 | 1.96 ± 0.041
57 | AUGAUU | 0.418 ± 0.17 | 1.989 ± 0.0036 | 0.334 ± 0.023 | 2.02 ± 0.027
58 | AUGAUG | 0.408 ± 0.071 | 1.87 ± 0.023 | 0.544 ± 0.23 | 1.98 ± 0.023
59 | CUGAGA | -0.345 ± 0.055 | 1.985 ± 0.0047 | -0.472 ± 0.062 | 1.99 ± 0.035
60 | AUCGCU | 0.152 ± 0.036 | 2.026 ± 0.01 | 0.222 ± 0.45 | 2.013 ± 0.015
61 | UUGAUG | 0.136 ± 0.018 | 1.797 ± 0.0018 | 0.436 ± 0.22 | 1.99 ± 0.046
62 | AUCGGA | 0.397 ± 0.17 | 1.99 ± 0.0013 | 0.345 ± 0.48 | 2 ± 0.039
63 | AUGGAA | 0.0999 ± 0.019 | 1.919 ± 0.0071 | -0.0772 ± 0.045 | 1.993 ± 0.0063
64 | AUGGAG | 0.271 ± 0.039 | 1.735 ± 0.0043 | 0.622 ± 0.21 | 1.97 ± 0.02
65 | AUGGAC | 0.279 ± 0.031 | 1.955 ± 0.0055 | 0.259 ± 0.12 | 1.99 ± 0.022
66 | UUCAUG | 0.548 ± 0.083 | 1.86 ± 0.014 | 0.703 ± 0.25 | 1.97 ± 0.067
67 | CUGUAU | 0.306 ± 0.094 | 1.981 ± 0.0073 | 0.479 ± 0.11 | 2 ± 0.021
68 | AUUCAG | 0.281 ± 0.045 | 1.962 ± 0.0047 | 0.431 ± 0.097 | 2.009 ± 0.018
69 | GUCACC | 0.379 ± 0.15 | 2.07 ± 0.021 | 0.061 ± 0.042 | 2.063 ± 0.013
70 | GUCACG | 0.0918 ± 0.029 | 2.024 ± 0.0084 | 0.228 ± 0.096 | 2.042 ± 0.015
71 | GUCUGC | 0.325 ± 0.12 | 2.025 ± 0.0038 | 0.295 ± 0.085 | 2.07 ± 0.053
72 | GUCUGG | 0.433 ± 0.03 | 2.027 ± 0.0089 | 0.385 ± 0.25 | 2.07 ± 0.063

Source: the supplement of paper PMC6757056
